Test results published in patent publication US6436691B1, “Chemical compounds” (Zeneca Limited, priority 1995, dated 2002).
Substitutions are numbered along the chain they refer to. Names may count otherwise.

B1: [A248S,G251T,D253K]HCPB: HCPB mutant with A248S, G251T and D253K, (His)6-c-myc tag (protein, UniProt P15086 111-417, looked up, variant A248S G251T D253K)
Carboxypeptidase B: ATGHSYEKYNKWETIEAWTQQVATENPALISRSVIGTTFEGRAIYLLKVGKAGQNKPAIFMDCGFHAREWISPAFCQWFVREAVRTYGREIQVTELLDKLDFYVLPVLNIDGYIYTWTKSRFWRKTRSTHTGSSCIGTDPNRNFDAGWCEIGASRNPCDETYCGPAAESEKETKALADFIRNKLSSIKAYLTIHSYSQMMIYPYSYAYKLGENNAELNALAKATVKELASLHGTKYTYGPGATTIYPSAGTSKDWAYDQGIRYSFTFELRDTGRYGFLLPESQIRATCEETFLAIKYVASYVLEHLY
modifications: (His)6-c-myc tag
B2: [A248H, D253K]: HCPB mutant with A248H and D253K (protein, UniProt P15086 111-417, looked up, variant A248H D253K)
Carboxypeptidase B: B1 Carboxypeptidase B with S248H, T251G
B3: [S205N, G251N, D253K]: HCPB mutant with S205N, G251N and D253K, (His)6-c-myc tag (protein, UniProt P15086 111-417, looked up, variant S205N G251N D253K)
Carboxypeptidase B: B1 Carboxypeptidase B with S205N, S248A, T251N
modifications: (His)6-c-myc tag
B4: [I245H, D253K]: HCPB mutant with I245H and D253K (protein, UniProt P15086 111-417, looked up, variant I245H D253K)
Carboxypeptidase B: B1 Carboxypeptidase B with I245H, S248A, T251G
B5: [A248S, G251S, D253K]: HCPB mutant with A248S, G251S and D253K (protein, UniProt P15086 111-417, looked up, variant A248S G251S D253K)
Carboxypeptidase B: B1 Carboxypeptidase B with T251S
B6: [A248N, G251T, D253K]: HCPB mutant with A248N, G251T and D253K, (His)6-c-myc tag (protein, UniProt P15086 111-417, looked up, variant A248N G251T D253K)
Carboxypeptidase B: B1 Carboxypeptidase B with S248N
modifications: (His)6-c-myc tag

Key:
Format in all cases: biochemical
[1] = Conversion of Hipp-Asp by periplasmic shockate of HCPB mutants, 24 h (Example 18); conditions: shockate concentration in reaction mixture 50 %; 24 h at 37° C.
Experimental: (§1) The activity of [G251T,D253K]HCPB was measured using the assay conditions described in Example 17 but using either 50 μl of a neat or 1 in 10 or 1 in 100 dilution of [G251T,D253K]HCPB crude E.coli periplasmic shockate (shockate) sample in place of purified enzyme. Samples were incubated for 24 h at 37° C. […] For other HCPB mutants, the reaction volume was 250 μl and contained 125 μl of neat shockate or 1 in 50 dilution of shockate. The shockate samples were prepared as described in Example 16. The amount of Hippuric acid produced in 24 h was quantified by HPLC as described in Example 17 and the results are shown in Table 6 and are expressed as the percentage conversion of substrate into product in 24 h at 37° C.

[2] = Conversion of Hipp-Glu by purified HCPB mutants, 30 minutes, HPLC (Example 17); conditions: 0.5 mM substrate, 30 minutes at 37° C.
Experimental: (§2) Purified mutants of human CPB (D253K; [G251K,D253R]; [G251N,D253R]; [I201S,D253K]; [G251N,D253K]; [Q54R,D145A,D253K]; [G251T,D253K]; [G251S,D253K]; [A248N,G251N,D253K]; [A248S,G251N,D253K] and [S205N,G251N,D253K]—described in Examples 3, 12, 13, 16, 28, 30, 31, 32 and 33) were assayed for their ability to convert hippuryl-L-glutamic acid (Hipp-Glu—Reference Example 1), hippuryl-L-aspartic acid (Hipp-Asp—Reference Example 2) and hippuryl-L-arginine (Sigma Chemical Company—cat no. H6625) to hippuric acid using a HPLC based assay similar to that described in Example 6.
(§3) Samples were incubated for 30 minutes at 37° C. The reactions were terminated by the addition of 500 μl of 40% methanol, 60% distilled water, 0.2% trifluoro acetic acid and the amount of hippuric acid generated was quantitated by HPLC as described in Example 6 but using a mobile phase of 20% methanol, 80% 50 mM phosphate buffer, pH 6.5. Hippuric acid was detected at 230 nm. The results are shown in Table 5 and are expressed as the percentage conversion of substrate into product in 30 minutes at 37° C.

[3] = Km and kcat of HCPB mutants with Hipp-Glu (Example 7); conditions: Hipp-Glu 0.25-8.0 mM; pH 7.5; 5 h at 37° C.
Experimental: Hipp-Glu and Hipp-Asp were diluted in range 0.25-8.0 mM and 0.25-5.0 mM respectively in 0.025 M Tris-HCL buffer, pH 7.5. Where necessary substrate samples were adjusted to pH 7.5 with 1M NaOH.
Samples were incubated for 5 h at 37° C. Reactions were terminated by the addition of 500 μl methanol/distilled water (80/20) containing 0.2% TFA. The amount of hippuric acid produced was quantified by HPLC as described in Example 6.
Km and Vmax values were calculated using the ENZFITTER software programme (Biosoft, Perkin Elmer).

[4] = Conversion of Hipp-Arg by purified HCPB mutants, 30 minutes, HPLC (Example 17); conditions: 0.5 mM substrate, 30 minutes at 37° C.
Experimental: as §2, §3

[5] = Conversion of Hipp-Asp by purified HCPB mutants, 30 minutes, HPLC (Example 17); conditions: 0.5 mM substrate, 30 minutes at 37° C.
Experimental: as §2, §3

[6] = Conversion of Hipp-Glu by periplasmic shockate of HCPB mutants, 24 h (Example 18); conditions: 24 h at 37° C.
Experimental: as §1

[7] = Activity against Hipp-Asp in crude E. coli periplasmic shockate relative to D253K or D253R HCPB (Example 16)
Description: A number of other mutant HCPBs have been constructed in a similar manner to the methods described in Reference Examples 7 and 8, and Examples 12, 13, 14 and 15. In each case oligos were constructed to introduce specific changes in the gene sequence by methods similar to those described above. In some cases additional mutations were identified upon complete sequencing of the mutated gene, and these were presumably introduced during the PCR reactions. Mutants with enzyme activity against substrate analogues (see Example 18 below) have been identified, and examples of these are given in Table 4 below. […] This material is subsequently referred to as periplasmic shockate or shockate and is prepared by the following procedure.
1. A single colony was used to inoculate 75 ml of L-broth nutrient media containing 10 μg/ml tetracycline and arabinose to a final concentration of 0.01% (w/v). Incubation was performed at 20° C. with shaking (250 rpm) for about 60 hours.
2. The cells were then harvested by centrifugation at 4° C.
3. The cell pellet was re-suspended in 300 micro-liters of 20% sucrose (w/v) containing 1 mM EDTA in 200 mM Tris-HCl at pH7.5, and incubated at room-temperature for 15 minutes.
4. Periplasmic shockate was generated by the addition of 450 micro-liters of distilled water, and a further incubation at room-temperature for 15 minutes.
5. Cellular remains were removed by centrifugation, and the supernatant assayed for enzyme activity as soon as possible after preparation and kept at 4° C. prior to assay.
as §1

[8] = shockate concentration in reaction mixture 1 %
[9] = shockate concentration in reaction mixture 50 %

Row | Molecule | Hipp-Asp (% conversion) [1] | Hipp-Glu (% conversion) ([2]; enzyme 25 μg/ml) | Hipp-Arg (% conversion) ([4]; enzyme 25 μg/ml) | Hipp-Asp (% conversion) ([5]; enzyme 25 μg/ml) | Hipp-Glu (% conversion) [6, 8] | Hipp-Glu (% conversion) [6, 9] | Hipp-Asp, activity relative to D253K HCPB or D253R HCPB [7] | other results
1 | B1 | 0.5% | 93% | 0% | 5.5% | 20% | 91.3% | – | Hipp-Glu (% conversion) ([2]; enzyme 0.25 μg/ml): 14.5%; Km [3]: 1100 µM; kcat, Hipp-Glu [3]: 19 s⁻¹; Hipp-Arg (% conversion) ([4]; enzyme 0.25 μg/ml): 0%; Hipp-Asp (% conversion) ([5]; enzyme 0.25 μg/ml): 0%
2 | B2 | – | – | – | – | – | – | NAD (No activity detected) | –
3 | B3 | 0% | 85% | 0.2% | 0.48% | – | 14.1% | – | Hipp-Glu (% conversion) ([2]; enzyme 0.5 μg/ml): 7.9%; Hipp-Arg (% conversion) ([4]; enzyme 0.5 μg/ml): 0%; Hipp-Asp (% conversion) ([5]; enzyme 0.5 μg/ml): 0%
4 | B4 | – | – | – | – | – | – | NAD (No activity detected) | –
5 | B5 | – | – | – | – | – | – | NAD (No activity detected) | –
6 | B6 | 1% | – | – | – | 53.5% | 95% | – | –
